Source: patent US5679770A, “Polypeptide, DNA fragment encoding the same, drug composition containing the same and process for producing the same” (Mochida Pharmaceutical Co., Ltd., priority 1991, dated 1997)

T1: Bovine trypsin (Bos taurus, UniProt P00760)
T1 construct: purchased Sigma Chemical Co. Type XIII
T1 sequence (P00760 24-246): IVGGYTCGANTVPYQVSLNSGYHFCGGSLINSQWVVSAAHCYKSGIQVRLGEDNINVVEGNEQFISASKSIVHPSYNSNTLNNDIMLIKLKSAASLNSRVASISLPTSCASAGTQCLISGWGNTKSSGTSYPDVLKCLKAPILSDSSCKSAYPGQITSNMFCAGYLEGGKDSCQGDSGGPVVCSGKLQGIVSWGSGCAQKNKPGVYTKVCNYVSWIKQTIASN

B1: R11Q/Q19K/Y46D: formula 1 sequence with Gln for position 7 Arg, Lys for position 15 Gln, Asp for position 42 Tyr; SEQ. I.D. NO. 37 (protein)
chain: AACNLPIVQGPCRAFIKLWAFDAVKGKCVLFPYGGCQGNGNKFDSEKECREYCGVPGDGDEELLRFSN
B2: R11S/Q19K/Y46D: formula 1 sequence with Ser for position 7 Arg, Lys for position 15 Gln, Asp for position 42 Tyr; SEQ. I.D. NO. 42 (protein)
chain: AACNLPIVSGPCRAFIKLWAFDAVKGKCVLFPYGGCQGNGNKFDSEKECREYCGVPGDGDEELLRFSN
B3: R11L/Q19K/Y46D: formula 1 sequence with Leu for position 7 Arg, Lys for position 15 Gln, Asp for position 42 Tyr; SEQ. I.D. NO. 39 (protein)
chain: AACNLPIVLGPCRAFIKLWAFDAVKGKCVLFPYGGCQGNGNKFDSEKECREYCGVPGDGDEELLRFSN
B4: R11E/Q19K/Y46E: formula 1 sequence with Glu for position 7 Arg, Lys for position 15 Gln, Glu for position 42 Tyr; SEQ. I.D. NO. 40 (protein)
chain: AACNLPIVEGPCRAFIKLWAFDAVKGKCVLFPYGGCQGNGNKFESEKECREYCGVPGDGDEELLRFSN
B5: R11D/Q19K/Y46D: formula 1 sequence with Asp for position 7 Arg, Lys for position 15 Gln, Asp for position 42 Tyr; SEQ. I.D. NO. 38 (protein)
chain: AACNLPIVDGPCRAFIKLWAFDAVKGKCVLFPYGGCQGNGNKFDSEKECREYCGVPGDGDEELLRFSN
B6: R11N/Q19K/Y46D: formula 1 sequence with Asn for position 7 Arg, Lys for position 15 Gln, Asp for position 42 Tyr; SEQ. I.D. NO. 41 (protein)
chain: AACNLPIVNGPCRAFIKLWAFDAVKGKCVLFPYGGCQGNGNKFDSEKECREYCGVPGDGDEELLRFSN
B7: R11A/Q19K/Y46D: formula 1 sequence with Ala for position 7 Arg, Lys for position 15 Gln, Asp for position 42 Tyr; SEQ. I.D. NO. 43 (protein)
chain: AACNLPIVAGPCRAFIKLWAFDAVKGKCVLFPYGGCQGNGNKFDSEKECREYCGVPGDGDEELLRFSN

Experiments:
[1] = target: T2, human trypsin (Homo sapiens, UniProt P07477); experiment: Human trypsin-inhibiting activity (synthetic substrate S-2444); format: biochemical; details: purified polypeptide, various concentration levels
T2 construct: purchased Calbiochem
Protocol: The purified polypeptide of the present invention was dissolved in 100 μl of distilled water. Concentration of polypeptide in the thus prepared solution was determined based on its bovine trypsin-inhibiting activity measured in accordance with the above procedure (1) using UTI (Mochida Pharmaceutical Co., Ltd.; cf. H. Ohnishi et al., Nippon Yakurigaku Zasshi, vol.85, pp.1-6, 1985) as a standard. The polypeptide solution was then diluted to various concentration levels with 0.03% BSA/0.2M triethanolamine-HCl buffer (pH 7.8) for use in the activity measurement. Separately from this, human trypsin (Calbiochem) was dissolved in 1 mM HCl to a concentration of 1,000 SU/ml and the solution was further diluted with the 0.03% BSA/0.2M triethanolamine-HCl buffer (pH 7.8) to prepare a 1.25 SU/ml solution of human trypsin. Thereafter, human trypsin-inhibiting activity was measured in the same manner as described in the above procedure (1) using the aforementioned synthetic substrate S-2444. Separately from this, polypeptide AN68 (sequence described in Example 17(3)) was diluted to various concentration levels. Thereafter, human trypsin-inhibiting activity was measured in the same manner as described in the above procedure (1) and compared with the trypsin-inhibiting activity of the novel polypeptide of the present invention.

[2] = target: T1, Bovine trypsin; experiment: Bovine trypsin-inhibiting activity (synthetic substrate S-2444); format: biochemical; details: purified polypeptide, serially diluted
Protocol: The purified polypeptide of the present invention was dissolved in 100 μl of distilled water, and the solution was serially diluted with a 0.1% BSA/0.2M triethanolamine-HCl buffer (pH 7.8) for use in the activity measurement. Measurement of the trypsin-inhibiting activity in the thus prepared test sample was carried out in accordance with the Kassell's method (Kassell, B. et al., Methods in Enzymology, vol.19, pp.844-852, 1970) using a synthetic substrate S-2444 (Daiichi Pure Chemicals Co., Ltd.).
Bovine trypsin (Type XIII, Sigma Chemical Co.) was dissolved in 0.001M HCl to a final concentration of 13,600 BAEEU/ml and the solution was further diluted with 0.1% BSA/0.2M triethanolamine-HCl buffer (pH 7.8) to prepare 1.2 BAEEU/ml of trypsin solution. Separately from this, 2 mM solution of the synthetic substrate S-2444 was prepared by dissolving it in distilled water. Next, 100 μl of the test sample was mixed with 100 μl of the trypsin solution. After incubating statically at 37° C. for 10 minutes, 50 μl of the S-2444 solution was added to start the reaction. The reaction was carried out at 37° C. for 15 minutes and then stopped by adding 50 μl of 50% acetic acid solution to the reaction mixture. Thereafter, absorbance at a wavelength of 405 nm was measured using a spectrophotometer. In this instance, in order to eliminate absorbancy of various contents in the reaction mixture other than the reaction product, a blank solution was prepared by mixing 100 μl of the bovine trypsin solution with 50 μl of 50% acetic acid and then with 100 μl of each test sample and 50 μl of the S-2444 solution.

| Molecule | human trypsin inhibition [1] | bovine trypsin inhibition [2] |
| --- | --- | --- |
| B1 | can inhibit human trypsin in a concentration-dependent manner | can inhibit bovine trypsin in a concentration-dependent manner |
| B2 | can inhibit human trypsin in a concentration-dependent manner | can inhibit bovine trypsin in a concentration-dependent manner |
| B3 | can inhibit human trypsin in a concentration-dependent manner | can inhibit bovine trypsin in a concentration-dependent manner |
| B4 | can inhibit human trypsin in a concentration-dependent manner | can inhibit bovine trypsin in a concentration-dependent manner |
| B5 | can inhibit human trypsin in a concentration-dependent manner | can inhibit bovine trypsin in a concentration-dependent manner |
| B6 | can inhibit human trypsin in a concentration-dependent manner | can inhibit bovine trypsin in a concentration-dependent manner |
| B7 | can inhibit human trypsin in a concentration-dependent manner | can inhibit bovine trypsin in a concentration-dependent manner |
